Assay [1] concerns the target T1, Siglec-5-Fc (R&D systems) (UniProt O15389 17-434, limits assumed).
T1 construct: Bought reagent; not shown: Fc part of the bought fusion; not described
T1 sequence (looked up): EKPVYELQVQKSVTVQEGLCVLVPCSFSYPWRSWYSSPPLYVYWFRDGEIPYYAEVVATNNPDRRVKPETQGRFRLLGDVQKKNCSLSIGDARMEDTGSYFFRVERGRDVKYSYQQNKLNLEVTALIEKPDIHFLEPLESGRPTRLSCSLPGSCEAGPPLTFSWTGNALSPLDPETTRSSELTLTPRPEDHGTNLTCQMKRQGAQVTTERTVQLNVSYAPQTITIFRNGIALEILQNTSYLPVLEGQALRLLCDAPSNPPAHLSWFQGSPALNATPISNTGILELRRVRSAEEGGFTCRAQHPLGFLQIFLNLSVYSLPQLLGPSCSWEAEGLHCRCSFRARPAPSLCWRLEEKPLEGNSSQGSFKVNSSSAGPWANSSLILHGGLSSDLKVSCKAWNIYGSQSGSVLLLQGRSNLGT
Briefly: ELISA, coated Siglec-5-Fc 1 µg/ml, single antibody concentration, anti-human Fab detection, Abs 450 nm, n=3. On the procedure: (§1) Specificity towards Siglec-5, Siglec-7, Siglec-8, Siglec-15 and Siglec-9 was assayed in enzyme-linked immunosorbent assay (ELISA) using 96 well half-area ELISA plates (Corning). Siglec-5-Fc (R&D systems), Siglec-7-Fc (in-house production, Siglec-7-Fc protein used had the following amino acid sequence:
(§2) (SEQ ID NO: 59)) […] […] […] […] […] […] […] […] […] […] […] […], Siglec-8-Fc (R&D systems), Siglec-15- Fc (R&D systems) and Siglec-9-Fc (in-house production, SEQ ID NO: 11) were coated at 1 μg/ml in 50 mM carbonate-bicarbonate buffer pH 9.6 for 15-20 hours at 4° C.
(§3) Antigens were washed away (Tecan Hydrospeed) and plates were blocked with 5% skimmed milk in phosphate-buffered saline (PBS). After washing the plates, antibodies were added at 5 μg/ml (33 nM) in 0.5% milk PBS in triplicates. Plates with antibodies were incubated for 1 hour at room temperature. Plates were washed and bound antibodies were detected by horseradish peroxidase (HRP)-labeled polyclonal anti-rabbit IgG antibody (Biolegend) or anti-human Fab fragment for mAbA (Sigma Aldrich). 3,3′,5,5′-Tetramethylbenzidine (TMB; Sigma Aldrich) development was stopped by addition of sulfuric acid and absorbance was detected at 450 nm (Tecan, CM […] MONO 200).
For orientation: An ELISA detects its analyte on a solid surface through an enzyme-linked reagent.

The target in assay [2] is Siglec-9 protein (construct not stated; antigen of Examples 3 and 4) (human, UniProt Q9Y336 18-348, limits assumed). As to the kind of experiment: ELISA, coated Siglec-9 1 µg/ml, antibody titrated, anti-human Fab detection, Abs 450 nm, three-parameter fit, n=3. On the procedure: FIG. 2: Binding curves of monoclonal antibodies (68D4 and 224B1; comparative monoclonal antibodies mAbA and 5C6 & negative control 53C3) towards Siglec-9 as analysed by ELISA. Binding of the monoclonal antibody to Siglec-9, as determined by measurement of the accumulated coloured product at 450 nm after stopping the reaction, is plotted against the concentration of the monoclonal antibody under evaluation.
Chain of Siglec-9 protein (construct not stated; antigen of Examples 3 and 4) (Q9Y336 18-348 limits assumed): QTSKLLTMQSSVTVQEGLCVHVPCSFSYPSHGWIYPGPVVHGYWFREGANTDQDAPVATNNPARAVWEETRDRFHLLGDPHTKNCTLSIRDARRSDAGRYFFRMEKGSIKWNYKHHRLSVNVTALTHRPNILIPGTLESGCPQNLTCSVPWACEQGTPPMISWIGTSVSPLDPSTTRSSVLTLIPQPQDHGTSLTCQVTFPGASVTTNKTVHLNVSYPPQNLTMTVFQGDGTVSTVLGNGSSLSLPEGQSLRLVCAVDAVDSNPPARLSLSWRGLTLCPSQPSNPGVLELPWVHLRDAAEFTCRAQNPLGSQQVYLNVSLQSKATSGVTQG
Antibody binding affinity towards Siglec-9 was measured by a dilution series of the analysed antibodies on a fixed concentration of Siglec-9 protein in ELISA. To this end, Siglec-9 was coated at 1 μg/ml in 50 mM carbonate-bicarbonate buffer pH 9.6 for 15-20 hours at 4° C. Antigen solution was washed away (Tecan Hydrospeed) and plates were blocked with 5% skimmed milk in phosphate-buffered saline (PBS) for 1 hour at room temperature. Plates were washed and antibodies were added at concentrations of 0-420 nM. […] Bound antibodies were detected by addition of horseradish peroxidase (HRP)-coupled secondary antibodies. Rabbit antibodies were detected by polyclonal anti-rabbit IgG antibody (Biolegend), mAbA by anti-human Fab fragment (Sigma Aldrich). […] Absorbance was detected at 450 nm (Tecan, CM […] MONO 200). Data were fitted and EC50 values were determined by three-parameter analysis in GraphPad Prism (GraphPad Software)

Assay [3] deals with extra-cellular domain of Siglec-9 fused to a C-terminal his-tag (Homo sapiens (Human), UniProt Q9Y336 18-348). As to the kind of experiment: ELISA, coated his-tagged Siglec-9 extracellular domain, anti-human Fc gamma detection, Abs 450 nm. The source says: (SEQ ID NO: 44) […] […] […] […] […] […] […]. For detection of bound IgG either polyclonal anti- rabbit IgG antibody (68D4; Biolegend, #406401), or anti-human Fey fragment (humanized 68D4 and mAbA; Jackson Immuno Research laboratories, #109-035-098) were used.
Chain of extra-cellular domain of Siglec-9 fused to a C-terminal his-tag (Q9Y336 18-348 limits assumed): as above

Assay [4] has as its target T1, Siglec-5-Fc (R&D systems). As to the kind of experiment: ELISA, coated Siglec-5-Fc 1 µg/ml, single antibody concentration, Abs 450 nm, n=3. On the procedure:
as §1, §2, §3

Assay [5] has as its target T2, Siglec-15-Fc (R&D systems) (UniProt Q6ZMC9 20-263, limits assumed).
T2 construct: Bought reagent; not shown: Fc part of the bought fusion; not described
T2 sequence (looked up): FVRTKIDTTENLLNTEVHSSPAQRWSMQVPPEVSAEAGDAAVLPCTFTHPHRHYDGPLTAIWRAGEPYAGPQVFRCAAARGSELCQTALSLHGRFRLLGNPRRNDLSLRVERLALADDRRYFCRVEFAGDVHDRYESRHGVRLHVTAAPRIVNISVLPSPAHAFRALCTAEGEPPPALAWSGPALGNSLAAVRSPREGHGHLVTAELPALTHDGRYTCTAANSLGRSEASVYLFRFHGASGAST
As to the kind of experiment: ELISA, coated Siglec-15-Fc 1 µg/ml, single antibody concentration, Abs 450 nm, n=3. On the procedure:
as §1, §2, §3

Assay [6] addresses T3, Siglec-7-Fc (in-house production).
T3 construct: The entry holds the Siglec-7 part and the Fc together; also called Siglec-7-Fc protein
Briefly: ELISA, coated Siglec-7-Fc 1 µg/ml, antibody at 5 µg/ml (33 nM), Abs 450 nm, n=3. On the procedure:
as §1, §2, §3

For orientation: EC50 means the concentration that produces a half-maximal response. The term EC50 (read off the curve) denotes the concentration at which the effect is half-maximal. The low end stands for an effect from little substance, the high end for a need for much substance.

T3 sequence (chain, as listed by the source limits assumed): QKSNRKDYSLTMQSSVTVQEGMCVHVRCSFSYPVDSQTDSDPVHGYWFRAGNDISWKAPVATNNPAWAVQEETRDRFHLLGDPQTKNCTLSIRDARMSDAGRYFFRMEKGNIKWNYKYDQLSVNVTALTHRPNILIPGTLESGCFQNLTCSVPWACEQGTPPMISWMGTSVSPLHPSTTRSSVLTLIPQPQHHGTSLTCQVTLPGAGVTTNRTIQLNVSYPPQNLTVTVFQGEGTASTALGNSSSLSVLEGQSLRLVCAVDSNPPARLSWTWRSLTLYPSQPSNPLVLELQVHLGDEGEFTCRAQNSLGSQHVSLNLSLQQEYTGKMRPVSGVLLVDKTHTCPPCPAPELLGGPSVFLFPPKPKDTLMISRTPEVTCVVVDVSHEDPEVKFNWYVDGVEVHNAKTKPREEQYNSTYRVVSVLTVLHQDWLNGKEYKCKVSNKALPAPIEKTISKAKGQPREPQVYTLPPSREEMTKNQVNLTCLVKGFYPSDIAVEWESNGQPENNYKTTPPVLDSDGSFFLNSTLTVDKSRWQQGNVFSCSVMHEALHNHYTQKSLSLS

B1: comparative monoclonal antibody mAbA (WO 2017/153433), mouse-human chimera (antibody, human IgG1, kappa, V domains shown)
VH: QVQLQQPGAELVKPGSPVKLSCKASYFTFTSYWMHWVRQRPGQGLEWIGEINPSNGHTNYNEKFESKATLTVDRSSSTAYMQLSSLTSEDSAVFYCANGVESYDFDDALDYWGQGTSVTVSS
VL: DIQMTQTTSSLSASLGDRVTISCRASQDINNYLNWYQQKPDGTIKLLIYYTSRLHSGVPSRFSGSGSGTDYSLTINNLEQEDIATYFCQQGNTLPFTFGGGTKLEIKR
Consider B1, for which the binding result in assay [1] was “no binding (tested: 5 µg/ml)”. The EC50 in assay [2] amounted to 0.42 nM. Besides, the “EC50 (read off the curve)” value in assay [3] is roughly 0.06 nM.

B2: monoclonal antibody 224B1 (rabbit) (antibody, V domains shown)
VH: QSVEESGGRLVTPETPLTLTCTASGFSLSSYYMSWVRQAPGKGLEWIGYIWTDGSAHYATWTKGRFTISKTSSTTVDLKITSPTTEDTATYFCVRANSGSHTYIEKFNLWGPGTLVTVSS
VL: DVVMTQTPASVEATVGGSVTIKCQASPSINDELSWYQQKPGQRPTLLIYEASALESGVPSRFKGSGSGTEFTLTIGDLECADAATYYCQCTYGSRSDISYGNTFGGGTEVVVKG
Regarding B2, the binding result in assay [4] was “no binding (tested: 5 µg/ml)”; in assay [5], “no binding (tested: 5 µg/ml)”; in assay [6], “binds”.
